Measured values reported in patent US20190002888A1 (INSTITUT NATIONAL DE LA SANTE ET DE LA RECHERCHE MEDICALE …, published 2019).
Blank lines part the entries; values can stand above or below the molecule they belong to.

Experiments:
[1] = target: FLT3 receptor in adult mouse DRG sensory neurons (mouse) (UniProt Q00342); assay: cell-based or functional assay
[2] = target: T1, SNAP tagged mouse FLT3, full-length, expressed in HEK293T cells (mouse, UniProt Q00342 28-1000, SNAP tag covalently labelled with SNAP-Lumi4-Tb); assay: TR-FRET displacement of 0.5 nM Red-FL on HEK293T cells expressing SNAP tagged full-length mFLT3
T1 construct: whole, on cells; Transiently transfected HEK293T cells; also called full-length mFLT3; mFLT3; not shown: SNAP tag (plasmid from Cisbio Bioassays)
T1 sequence (looked up): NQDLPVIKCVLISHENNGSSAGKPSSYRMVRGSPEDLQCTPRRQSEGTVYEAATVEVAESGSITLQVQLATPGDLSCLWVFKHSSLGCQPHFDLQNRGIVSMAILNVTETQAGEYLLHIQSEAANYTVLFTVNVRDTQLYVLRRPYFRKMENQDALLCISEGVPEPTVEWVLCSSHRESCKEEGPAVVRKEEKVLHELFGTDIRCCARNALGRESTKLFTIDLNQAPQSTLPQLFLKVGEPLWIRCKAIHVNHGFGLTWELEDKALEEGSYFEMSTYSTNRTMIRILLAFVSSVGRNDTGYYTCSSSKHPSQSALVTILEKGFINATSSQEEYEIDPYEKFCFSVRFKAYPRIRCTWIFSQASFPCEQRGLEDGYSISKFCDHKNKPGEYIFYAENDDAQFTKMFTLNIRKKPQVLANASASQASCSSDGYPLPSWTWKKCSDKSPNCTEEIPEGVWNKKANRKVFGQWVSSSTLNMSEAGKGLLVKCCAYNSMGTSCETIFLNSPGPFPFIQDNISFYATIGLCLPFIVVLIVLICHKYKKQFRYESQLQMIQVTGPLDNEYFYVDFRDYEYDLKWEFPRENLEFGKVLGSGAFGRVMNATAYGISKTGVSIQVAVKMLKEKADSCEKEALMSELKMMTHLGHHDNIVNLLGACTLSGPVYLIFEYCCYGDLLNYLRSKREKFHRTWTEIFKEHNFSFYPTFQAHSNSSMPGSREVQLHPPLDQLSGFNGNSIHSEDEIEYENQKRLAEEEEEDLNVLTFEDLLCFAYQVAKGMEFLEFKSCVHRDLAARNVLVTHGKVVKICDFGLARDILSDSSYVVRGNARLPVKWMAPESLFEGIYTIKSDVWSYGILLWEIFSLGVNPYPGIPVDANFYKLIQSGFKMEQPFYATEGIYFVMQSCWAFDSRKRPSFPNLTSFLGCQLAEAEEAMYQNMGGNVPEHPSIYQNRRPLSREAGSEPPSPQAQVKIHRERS
Method: (§1) TR-FRET binding assays. TR-FRET binding assays were performed 24 h after transfection on fresh cells. When using frozen cells, binding assays were carried out immediately after cells thawing. When the assay was carried out on adherent cells in 96-well plates, the cell density was 50,000 cells per well, while a density of 10,000 cells per well was used to carry out binding assays in suspension in 384-well small volume plates.
(§2) Cells were incubated with 0.5 nM Red-FL in the presence of increasing concentrations of the antibody. In the plates containing labelled cells, 50 μl of Tag-lite® labelling medium, 25 μl of compounds to be tested were added and incubated for 1 h at room temperature prior to the addition of 25 μl of Red-FL. Plates were then incubated at room temperature for 4 h or overnight before signal detection.
(§3) Signal detection. Signal was detected using an advanced fluorescence microplate reader (RUBYstar, BMG Labtech) equipped with a HTRF optic module allowing a donor excitation at 337 nm and a signal collection both at 665 nm and 620 nm. A frequency of 20 flashes/well is selected for the laser excitation. […] Results were expressed as percentage of signal measured in the presence of Red-FL alone, corrected for non-specific binding measured in the presence of […].

[3] = target: T2, SNAP tagged human FLT3, full-length, expressed in HEK293T cells (human, UniProt P36888 27-993, SNAP tag covalently labelled with SNAP-Lumi4-Tb); assay: TR-FRET displacement of 0.5 nM Red-FL on HEK293T cells expressing SNAP tagged full-length hFLT3
T2 construct: whole, on cells; Transiently transfected HEK293T cells; also called full-length hFLT3; hFLT3; not shown: SNAP tag (plasmid from Cisbio Bioassays)
T2 sequence (looked up): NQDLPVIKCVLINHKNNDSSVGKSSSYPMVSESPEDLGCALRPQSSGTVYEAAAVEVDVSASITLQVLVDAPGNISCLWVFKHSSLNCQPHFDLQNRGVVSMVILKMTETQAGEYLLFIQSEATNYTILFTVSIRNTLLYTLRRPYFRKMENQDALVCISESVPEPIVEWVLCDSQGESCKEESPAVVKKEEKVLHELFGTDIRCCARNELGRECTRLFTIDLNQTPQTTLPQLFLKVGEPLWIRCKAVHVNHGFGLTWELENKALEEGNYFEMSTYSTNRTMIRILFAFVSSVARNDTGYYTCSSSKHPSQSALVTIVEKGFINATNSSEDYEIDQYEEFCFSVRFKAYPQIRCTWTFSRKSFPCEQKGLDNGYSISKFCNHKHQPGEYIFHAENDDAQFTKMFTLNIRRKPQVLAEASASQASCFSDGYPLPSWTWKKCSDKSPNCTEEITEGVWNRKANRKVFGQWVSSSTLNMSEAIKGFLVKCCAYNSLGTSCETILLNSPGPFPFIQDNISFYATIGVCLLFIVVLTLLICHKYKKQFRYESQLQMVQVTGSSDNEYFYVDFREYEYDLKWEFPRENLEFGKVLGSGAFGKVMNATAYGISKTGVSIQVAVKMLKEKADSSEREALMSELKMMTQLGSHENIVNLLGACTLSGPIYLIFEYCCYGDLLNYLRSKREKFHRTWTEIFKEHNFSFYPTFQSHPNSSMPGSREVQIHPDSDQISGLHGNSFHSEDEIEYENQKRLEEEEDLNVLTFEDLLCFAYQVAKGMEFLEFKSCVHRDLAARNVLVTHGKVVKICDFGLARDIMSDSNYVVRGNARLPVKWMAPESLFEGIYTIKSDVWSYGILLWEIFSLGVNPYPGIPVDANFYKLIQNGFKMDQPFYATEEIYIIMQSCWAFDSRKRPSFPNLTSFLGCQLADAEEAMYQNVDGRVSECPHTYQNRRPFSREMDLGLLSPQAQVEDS
Method: as §1, §2, §3

mean fold increase in TRPV1 response, ΔFarea [1]: 512%
mean fold increase in TRPV1 response, ΔFpeak [1]: 212%
potentiation of the capsaicin response ([Ca2+]i, Fura-2) in DRG neurons: share of capsaicin-responding cells potentiated [1]: 56%
Molecule: FL (FLT3-Ligand, from ABCYS SA)

IC50 [2]: ~17 µg/mL
IC50 [3]: ~17 µg/mL
B1: A3 antibody (human monoclonal antibody against FLT3) (antibody, V domains shown)
VH: EVQLVESGGSLVKPGGSLRLSCAASGFTFSNSYMNWVRQAPGKGLEWISDISGSSRDIDYADFVKGRFTISRDNATNSLYLQMNSLRAEDTAVYYCVRSGNSGMDVWGRGTLVTVSS
VL: QSVLTQPASVSGSPGQSITISCAGTSSDVGGGYYVSWYQQHPGKAPKLMIYYDSYRPSGVSNRFSGSKSGNTASLTISGLQAEDEADYYCSSYTNNSTRVFGGGTKLEIK
notes: also called antibody A3; anti-FLT3 A3 antibody
